Test results: article PMC10397247

Columns and labels:
[1] = target: T1, 4H2513-AA; assay: two-hybrid library CCmax;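 note: natural log of median RNA to DNA barcode read ratio; higher means stronger binding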
T1 chain: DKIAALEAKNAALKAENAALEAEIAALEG

[2] = target: T2, 4H2536-AA; assay: two-hybrid library CCmax;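 note: natural log of median RNA to DNA barcode read ratio; higher means stronger binding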
T2 chain: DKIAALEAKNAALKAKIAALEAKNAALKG

[3] = target: T3, 4H2608-AA; assay: two-hybrid library CCmax; conditions: mean of both orientations;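 note: natural log of median RNA to DNA barcode read ratio; higher means stronger binding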
T3 chain: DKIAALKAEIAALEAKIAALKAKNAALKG

[4] = target: T4, 4H2614-AA; assay: two-hybrid library CCmax; conditions: mean of both orientations;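 note: natural log of median RNA to DNA barcode read ratio; higher means stronger binding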
T4 chain: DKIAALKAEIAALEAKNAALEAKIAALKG

[5] = target: T5, 4H2726-AA; assay: two-hybrid library CCmax; conditions: mean of both orientations;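 note: natural log of median RNA to DNA barcode read ratio; higher means stronger binding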
T5 chain: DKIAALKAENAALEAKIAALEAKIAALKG

[6] = target: T6, 4H2935-AA; assay: two-hybrid library CCmax; conditions: mean of both orientations;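 note: natural log of median RNA to DNA barcode read ratio; higher means stronger binding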
T6 chain: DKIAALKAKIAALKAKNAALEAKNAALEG

[7] = target: T7, 4H327-AA; assay: two-hybrid library CCmax; conditions: mean of both orientations
T7 chain: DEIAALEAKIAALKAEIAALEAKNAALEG

[8] = target: T8, 4H3605-AA; assay: two-hybrid library CCmax; conditions: mean of both orientations
T8 chain: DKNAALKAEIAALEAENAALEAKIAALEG

[9] = target: T9, 4H3625-AA; assay: two-hybrid library CCmax; conditions: mean of both orientations
T9 chain: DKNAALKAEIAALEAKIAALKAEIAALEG

[10] = target: T10, 4H3664-AA; assay: two-hybrid library CCmax; conditions: mean of both orientations
T10 chain: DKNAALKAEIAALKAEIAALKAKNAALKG

[11] = target: T11, 4H369-AA; assay: two-hybrid library CCmax; conditions: mean of both orientations
T11 chain: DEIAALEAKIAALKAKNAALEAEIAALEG

[12] = target: T12, 4H3922-AA; assay: two-hybrid library CCmax; conditions: mean of both orientations
T12 chain: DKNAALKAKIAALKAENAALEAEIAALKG

[13] = target: T13, 4H4033-AA; assay: two-hybrid library CCmax; conditions: mean of both orientations
T13 chain: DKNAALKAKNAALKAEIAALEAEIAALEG

[14] = target: T14, 4H481-AA; assay: two-hybrid library CCmax; conditions: mean of both orientations
T14 chain: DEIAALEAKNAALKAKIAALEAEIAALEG

[15] = target: T15, 4H55-AA; assay: two-hybrid library CCmax
T15 chain: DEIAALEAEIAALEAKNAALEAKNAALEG

[16] = target: T16, 4H662-AA; assay: two-hybrid library CCmax; conditions: mean of both orientations
T16 chain: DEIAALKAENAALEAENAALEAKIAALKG

[17] = target: T17, 4H2667-bN; assay: two-hybrid library CCNG1
T17 chain: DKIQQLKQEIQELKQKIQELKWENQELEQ

[18] = target: T18, 4H2697-bN; assay: two-hybrid library CCNG1
T18 chain: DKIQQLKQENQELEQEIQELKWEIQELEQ

[19] = target: T19, 4H2729-bN; assay: two-hybrid library CCNG1
T19 chain: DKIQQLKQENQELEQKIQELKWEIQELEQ

[20] = target: T20, 4H3112-bN; assay: two-hybrid library CCNG1
T20 chain: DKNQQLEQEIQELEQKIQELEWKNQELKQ

[21] = target: T21, 4H3185-bN; assay: two-hybrid library CCNG1
T21 chain: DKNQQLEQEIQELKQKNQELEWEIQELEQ

[22] = target: T22, 4H3189-bN; assay: two-hybrid library CCNG1
T22 chain: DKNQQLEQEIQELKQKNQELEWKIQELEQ

[23] = target: T23, 4H331-bN; assay: two-hybrid library CCNG1
T23 chain: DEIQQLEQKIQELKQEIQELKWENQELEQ

[24] = target: T24, 4H3354-bN; assay: two-hybrid library CCNG1
T24 chain: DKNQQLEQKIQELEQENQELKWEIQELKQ

[25] = target: T25, 4H338-bN; assay: two-hybrid library CCNG1
T25 chain: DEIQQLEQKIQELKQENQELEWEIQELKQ

[26] = target: T26, 4H3427-bN; assay: two-hybrid library CCNG1
T26 chain: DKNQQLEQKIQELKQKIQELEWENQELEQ

[27] = target: T27, 4H3606-bN; assay: two-hybrid library CCNG1
T27 chain: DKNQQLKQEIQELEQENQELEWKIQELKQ

[28] = target: T28, 4H370-bN; assay: two-hybrid library CCNG1
T28 chain: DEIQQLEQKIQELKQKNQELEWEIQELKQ

[29] = target: T29, 4H3782-bN; assay: two-hybrid library CCNG1
T29 chain: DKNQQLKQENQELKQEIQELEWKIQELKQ

[30] = target: T30, 4H3843-bN; assay: two-hybrid library CCNG1
T30 chain: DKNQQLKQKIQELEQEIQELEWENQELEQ

[31] = target: T31, 4H3855-bN; assay: two-hybrid library CCNG1
T31 chain: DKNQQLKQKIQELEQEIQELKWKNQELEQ

[32] = target: T32, 4H4001-bN; assay: two-hybrid library CCNG1
T32 chain: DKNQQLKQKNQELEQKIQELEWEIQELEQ

[33] = target: T33, 4H454-bN; assay: two-hybrid library CCNG1
T33 chain: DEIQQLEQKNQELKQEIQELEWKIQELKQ

[34] = target: T34, 4H462-bN; assay: two-hybrid library CCNG1
T34 chain: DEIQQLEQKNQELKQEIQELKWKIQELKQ

[35] = target: T35, 4H568-bN; assay: two-hybrid library CCNG1
T35 chain: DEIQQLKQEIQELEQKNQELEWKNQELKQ

[36] = target: T36, 4H575-bA; assay: two-hybrid library CCNG1
T36 chain: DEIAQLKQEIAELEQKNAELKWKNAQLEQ

[37] = target: T37, 4H607-bN; assay: two-hybrid library CCNG1
T37 chain: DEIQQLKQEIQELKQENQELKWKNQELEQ

[38] = target: T38, 4H687-bN; assay: two-hybrid library CCNG1
T38 chain: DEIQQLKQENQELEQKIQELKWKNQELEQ

[39] = target: T39, 4H717-bN; assay: two-hybrid library CCNG1
T39 chain: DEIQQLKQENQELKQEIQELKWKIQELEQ

[40] = target: T40, 4H72-bN; assay: two-hybrid library CCNG1
T40 chain: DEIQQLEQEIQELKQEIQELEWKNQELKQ

[41] = target: T41, 4H754-bN; assay: two-hybrid library CCNG1
T41 chain: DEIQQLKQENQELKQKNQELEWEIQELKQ

[42] = target: T42, 4H797-bN; assay: two-hybrid library CCNG1
T42 chain: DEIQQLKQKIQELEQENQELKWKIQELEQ

[43] = target: T43, 4H883-bN; assay: two-hybrid library CCNG1
T43 chain: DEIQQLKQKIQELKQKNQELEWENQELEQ

[44] = target: T44, 4H908-bN; assay: two-hybrid library CCNG1
T44 chain: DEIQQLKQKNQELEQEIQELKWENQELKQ

[45] = target: T45, 4H918-bN; assay: two-hybrid library CCNG1
T45 chain: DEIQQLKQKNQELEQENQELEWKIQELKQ

[46] = target: T46, 4H953-bN; assay: two-hybrid library CCNG1
T46 chain: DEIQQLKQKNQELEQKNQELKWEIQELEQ

[47] = target: T47, 4H967-bN; assay: two-hybrid library CCNG1
T47 chain: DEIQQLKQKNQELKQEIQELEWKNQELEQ

[48] = target: T48, 4H3817-bN; assay: two-hybrid library CCNG1
T48 chain: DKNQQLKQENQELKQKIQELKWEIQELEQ

[49] = target: T49, O16-bA; assay: two-hybrid library CCNG1
T49 chain: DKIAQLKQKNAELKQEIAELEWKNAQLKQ

[50] = target: T50, O2-bA; assay: two-hybrid library CCNG1
T50 chain: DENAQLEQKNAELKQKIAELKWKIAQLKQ

[51] = target: T51, O3-bA; assay: two-hybrid library CCNG1
T51 chain: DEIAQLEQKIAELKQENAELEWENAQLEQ

[52] = target: T52, O4-bA; assay: two-hybrid library CCNG1
T52 chain: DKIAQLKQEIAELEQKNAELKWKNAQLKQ

[53] = target: T53, O5-bA; assay: two-hybrid library CCNG1
T53 chain: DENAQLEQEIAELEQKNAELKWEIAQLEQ

[54] = target: T54, O6-bA; assay: two-hybrid library CCNG1
T54 chain: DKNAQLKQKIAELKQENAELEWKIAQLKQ

[55] = target: T55, O7-bA; assay: two-hybrid library CCNG1
T55 chain: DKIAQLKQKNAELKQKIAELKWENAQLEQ

[56] = target: T56, O8-bA; assay: two-hybrid library CCNG1
T56 chain: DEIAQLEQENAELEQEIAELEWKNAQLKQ

[57] = target: T57, O9-bA; assay: two-hybrid library CCNG1
T57 chain: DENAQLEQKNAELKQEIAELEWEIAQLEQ

[58] = target: T58, 4H797-bH; assay: two-hybrid library CCNG1
T58 chain: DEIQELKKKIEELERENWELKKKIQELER

[59] = target: T59, 4H855-bH; assay: two-hybrid library CCNG1
T59 chain: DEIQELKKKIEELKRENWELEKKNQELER

[60] = target: T60, 4H883-bH; assay: two-hybrid library CCNG1
T60 chain: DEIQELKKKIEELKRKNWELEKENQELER

[61] = target: T61, 4H908-bH; assay: two-hybrid library CCNG1
T61 chain: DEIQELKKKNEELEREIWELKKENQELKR

[62] = target: T62, 4H918-bH; assay: two-hybrid library CCNG1
T62 chain: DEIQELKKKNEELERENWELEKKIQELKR

[63] = target: T63, 4H953-bH; assay: two-hybrid library CCNG1
T63 chain: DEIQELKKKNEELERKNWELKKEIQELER

[64] = target: T64, 4H967-bH; assay: two-hybrid library CCNG1
T64 chain: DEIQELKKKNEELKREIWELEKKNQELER

[65] = target: T65, 4H968-bH; assay: two-hybrid library CCNG1
T65 chain: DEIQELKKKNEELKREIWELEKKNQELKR

In the case of DKIAALEAKNAALKAENAALEAEIAALEG [4H2513-AA], the interaction score [1] is reported as -1.49, the interaction score [2] is reported as -0.747 and the interaction score [3] is reported as -1.07. For the same binder, the interaction score [4] was 0.461, the interaction score [5] was 0.913 and the interaction score [6] was -2.01. It also gave an interaction score [7] of -1.74, an interaction score [8] of -1.25 and an interaction score [9] of -2. For the same binder, the interaction score [10] was -1.85, the interaction score [11] was -1.79 and the interaction score [12] was -1.74. For the same binder, the interaction score [13] was -1.46, the interaction score [14] was -1.36 and the interaction score [15] was -1.88. It also gave an interaction score [16] of 1.22.

In the case of DKIQQLKQEIQELKQKIQELKWENQELEQ [4H2667-bN], the interaction score [17] is reported as 0.858, the interaction score [18] is reported as -0.288 and the interaction score [19] is reported as -0.251. The interaction score [20] was 1.72, the interaction score [21] was -0.735 and the interaction score [22] was -0.514. For the same binder, the interaction score [23] was 2.18, the interaction score [24] was -1.12 and the interaction score [25] was 0.105. The interaction score [26] was 1.56, the interaction score [27] was 0.163 and the interaction score [28] was -0.572. The interaction score [29] was -0.86, the interaction score [30] was 1.5 and the interaction score [31] was -0.551. The interaction score [32] was 0.942, the interaction score [33] was 0.31 and the interaction score [34] was -1.28. The interaction score [35] was -0.122, the interaction score [36] was -1.2 and the interaction score [37] was -1.69. The interaction score [38] was -1.55, the interaction score [39] was -0.215 and the interaction score [40] was 0.513. The interaction score [41] was -0.798, the interaction score [42] was -1.02 and the interaction score [43] was -0.0532. For the same binder, the interaction score [44] was -0.467, the interaction score [45] was -1.12 and the interaction score [46] was -0.794. For the same binder, the interaction score [47] was -0.671.

DKIQQLKQENQELEQKIQELKWEIQELEQ [4H2729-bN] showed an interaction score [19] of -1.82, an interaction score [20] of -0.365 and an interaction score [21] of -0.905. The interaction score [23] was -1.39, the interaction score [24] was -0.621 and the interaction score [25] was -1.12. For the same binder, the interaction score [26] was -1.07, the interaction score [29] was -0.911 and the interaction score [48] was -0.912. The interaction score [31] was -0.181, the interaction score [32] was -1.4 and the interaction score [33] was 1.43. It also gave an interaction score [35] of -1.47, an interaction score [37] of -1.28 and an interaction score [38] of -0.901. For the same binder, the interaction score [39] was -1.59, the interaction score [40] was -1.09 and the interaction score [41] was -0.565. For the same binder, the interaction score [42] was -1.01, the interaction score [43] was -2.01 and the interaction score [44] was -1.64. The interaction score [45] was -0.584, the interaction score [46] was -0.965 and the interaction score [47] was -0.995.

DKIAQLKQKNAELKQEIAELEWKNAQLKQ [O16-bA] gave an interaction score [49] of -0.811, an interaction score [50] of -0.141 and an interaction score [51] of -0.599. It also gave an interaction score [52] of -0.54, an interaction score [53] of -1.16 and an interaction score [54] of 1.4. For the same binder, the interaction score [55] was 1.33, the interaction score [56] was 1.35 and the interaction score [57] was -1.22.

Work on DEIQELKKKIEELERENWELKKKIQELER [4H797-bH] yielded an interaction score [58] of -0.311, an interaction score [59] of -1.17 and an interaction score [60] of 0.639. The interaction score [61] was -0.915, the interaction score [62] was 0.24 and the interaction score [63] was -0.0525. The interaction score [64] was 0.229, the interaction score [65] was -0.0614 and the interaction score [49] was -0.174.
